The text below walks through data of US7816543B2, “Leptomycin derivatives” (Sanofi-Aventis, priority 2006, dated 2010).

For series [1], the system named is A375 cells. The series is described as follows: Cytotoxicity evaluation on A375 cells. It is filed as cell-based, human. The note with it: FIG. 1. The text has this: (§1) The human cancer cell lines HL60, Namalwa, A-375, COLO205 and Ramos were obtained from the American Type Culture Collection (ATCC). Kara is a murine tumor cell line that has been stably transfected with the human CD33 antigen.

Series [2] has as its system COLO 205 (CanAg antigen-positive) cancer cells. Put plainly: Cytotoxicity evaluation on COLO 205 cells. It is filed as cell-based, human. The note with it: COLO 205 (CanAg antigen-positive) cells, FIG. 1.
Text: as §1

B1: huC242-SSNPB-leptomycin of example 6 (conjugate, chains of the INN, looked up)
VH: QVQLVQSGAEVKKPGETVKISCKASDYTFTYYGMNWVKQAPGQGLKWMGWIDTTTGEPTYAQKFQGRIAFSLETSASTAYLQIKSLKSEDTATYFCARRGPYNWYFDVWGQGTTVTVSS
VL: DIVMTQSPLSVPVTPGEPVSISCRSSKSLLHSNGNTYLYWFLQRPGQSPQLLIYRMSNLVSGVPDRFSGSGSGTAFTLRISRVEAEDVGVYYCLQHLEYPFTFGPGTKLELK
modifications: SSNPB-leptomycin conjugate
Regarding B1, the IC50 (commonly the concentration at which inhibition is half-maximal) in series [1] was > 5 nM; in series [2], 0.13 nM.
